Experimental data from US20090012270A1 (MEDICAL RESEARCH COUNCIL, published 2009).

Target: T1, mouse OX2 (mouse, UniProt O54901 31-278)
T1 construct: whole, on cells; also called ligand OX2 (mouse); normally expressed mouse OX2
T1 sequence (looked up): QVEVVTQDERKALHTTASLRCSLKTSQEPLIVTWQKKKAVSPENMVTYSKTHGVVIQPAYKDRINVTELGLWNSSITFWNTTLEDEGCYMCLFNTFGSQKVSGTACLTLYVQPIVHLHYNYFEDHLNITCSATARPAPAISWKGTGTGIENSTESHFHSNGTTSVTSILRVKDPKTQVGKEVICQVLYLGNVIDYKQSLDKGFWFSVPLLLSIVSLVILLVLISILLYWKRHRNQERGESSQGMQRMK
Assay: immunoperoxidase staining of mouse spleen sections, detected with anti-human Fc
Method: To determine function of OX2-OX2R interaction in vitro and in vivo, an adenovirus construct was prepared that produced in soluble form, the extracellular region of OX2RH1 fused to human IgG. A control construct was prepared that produced in soluble form, only the human IgG backbone. In the first instance, supernatants containing these fusion proteins were produced by cellular infection in vitro to test whether the OX2R fusion protein had biological function on the basis of binding to normally expressed mouse OX2. In the first series of studies, tissue sections of mouse spleen from normal as well as OX2-gene knockout (KO) mice, were prepared and OX2R, or control fusion proteins were added, and these reagents detected by addition of an antibody binding to the human Fc portion of the fusion protein, and subsequent immunoperoxidase staining procedures to reveal binding. Weak binding only of the OX2R fusion protein, and only in normal but not OX2 KO mice, was detected on follicular dendritic cells and endothelial cells. Both cell types are know to express very high levels of the ligand OX2.

B1: human IgG-mouse OX2RH1 fusion protein (extracellular region of OX2RH1 fused to human IgG) (Fc fusion)
chain: TDKNQTTQNNSSSPLTQVNTTVSVQIGTKALLCCFSIPLTKAVLITWIIKLRGLPSCTIAYKVDTKTNETSCLGRNITWASTPDHSPELQISAVTLQHEGTYTCETVTPEGNFEKNYDLQVLVPPEVTYFPEKNRSAVCEAMAGKPAAQISWSPDGDCVTTSESHSNGTVTVRSTCHWEQNNVSDVSCIVSHLTGNQSLSIELSRGGNQSLRP
notes: Soluble protein from cells infected with an adenovirus construct; also called OX2R fusion protein; Ig-OX2R fusion protein; not shown: human IgG backbone with the human Fc portion
Q: Does B1 bind?
A: Result: binds
